From IntAct's records for PubMed 18063693

B1: Steroid hormone receptor ERR1 (Homo sapiens), P11474 (parent)
chain: MSSQVVGIEPLYIKAEPASPDSPKGSSETETEPPVALAPGPAPTRCLPGHKEEEDGEGAGPGEQGGGKLVLSSLPKRLCLVCGDVASGYHYGVASCEACKAFFKRTIQGSIEYSCPASNECEITKRRRKACQACRFTKCLRVGMLKEGVRLDRVRGGRQKYKRRPEVDPLPFPGPFPAGPLAVAGGPRKTAAPVNALVSHLLVVEPEKLYAMPDPAGPDGHLPAVATLCDLFDREIVVTISWAKSIPGFSSLSLSDQMSVLQSVWMEVLVLGVAQRSLPLQDELAFAEDLVLDEEGARAAGLGELGAALLQLVRRLQALRLEREEYVLLKALALANSDSVHIEDAEAVEQLREALHEALLEYEAGRAGPGGGAERRRAGRLLLTLPLLRQTAGKVLAHFYGVKLEGKVPMHKLFLEMLEAMMD
partner: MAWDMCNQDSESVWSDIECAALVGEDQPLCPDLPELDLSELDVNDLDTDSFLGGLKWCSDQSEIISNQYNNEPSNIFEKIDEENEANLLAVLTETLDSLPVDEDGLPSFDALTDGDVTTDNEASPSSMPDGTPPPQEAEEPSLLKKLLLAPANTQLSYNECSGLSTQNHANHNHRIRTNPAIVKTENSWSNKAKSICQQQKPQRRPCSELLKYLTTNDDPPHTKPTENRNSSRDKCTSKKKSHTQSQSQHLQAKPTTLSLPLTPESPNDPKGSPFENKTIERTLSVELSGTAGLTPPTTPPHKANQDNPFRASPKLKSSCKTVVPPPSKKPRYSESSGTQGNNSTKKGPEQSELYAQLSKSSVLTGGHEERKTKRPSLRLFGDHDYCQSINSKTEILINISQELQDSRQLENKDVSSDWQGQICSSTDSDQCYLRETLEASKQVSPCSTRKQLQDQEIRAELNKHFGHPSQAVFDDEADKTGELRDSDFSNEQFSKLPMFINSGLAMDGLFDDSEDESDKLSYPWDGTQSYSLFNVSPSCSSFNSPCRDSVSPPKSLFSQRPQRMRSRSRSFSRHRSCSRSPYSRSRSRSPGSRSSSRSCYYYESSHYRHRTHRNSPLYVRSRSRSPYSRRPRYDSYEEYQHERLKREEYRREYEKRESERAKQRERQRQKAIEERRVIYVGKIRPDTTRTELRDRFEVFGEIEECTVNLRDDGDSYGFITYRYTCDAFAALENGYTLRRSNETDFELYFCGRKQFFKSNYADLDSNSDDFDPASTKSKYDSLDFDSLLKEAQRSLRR
B2: Estrogen-related receptor gamma (Homo sapiens), P62508 (parent)
chain: MDSVELCLPESFSLHYEEELLCRMSNKDRHIDSSCSSFIKTEPSSPASLTDSVNHHSPGGSSDASGSYSSTMNGHQNGLDSPPLYPSAPILGGSGPVRKLYDDCSSTIVEDPQTKCEYMLNSMPKRLCLVCGDIASGYHYGVASCEACKAFFKRTIQGNIEYSCPATNECEITKRRRKSCQACRFMKCLKVGMLKEGVRLDRVRGGRQKYKRRIDAENSPYLNPQLVQPAKKPYNKIVSHLLVAEPEKIYAMPDPTVPDSDIKALTTLCDLADRELVVIIGWAKHIPGFSTLSLADQMSLLQSAWMEILILGVVYRSLSFEDELVYADDYIMDEDQSKLAGLLDLNNAILQLVKKYKSMKLEKEEFVTLKAIALANSDSMHIEDVEAVQKLQDVLHEALQDYEAGQHMEDPRRAGKMLMTLPLLRQTSTKAVQHFYNIKLEGKVPMHKLFLEMLEAKV
partner: B1 partner
B3: Steroid hormone receptor ERR1 (Homo sapiens), P11474 (parent)
chain: B1 chain

Variants of: B1
Details: with prgc1_human PPARGC1A

**Q.** Which “effect of a mutation on the interaction” value does the source give for MSSQVVGIEPLYIRAEPASPDSPKGSSETETEPPVALAPGPAPTRCLPGHKEEEDGEGAGPGEQGGGKLVLSSLPKRLCLVCGDVASGYHYGVASCEACKAFFKRTIQGSIEYSCPASNECEITKRRRKACQACRFTKCLRVGMLKEGVRLDRVRGGRQKYKRRPEVDPLPFPGPFPAGPLAVAGGPRKTAAPVNALVSHLLVVEPEKLYAMPDPAGPDGHLPAVATLCDLFDREIVVTISWAKSIPGFSSLSLSDQMSVLQSVWMEVLVLGVAQRSLPLQDELAFAEDLVLDEEGARAAGLGELGAALLQLVRRLQALRLEREEYVLLKALALANSDSVHIEDAEAVEQLREALHEALLEYEAGRAGPGGGAERRRAGRLLLTLPLLRQTAGKVLAHFYGVKLEGKVPMHKLFLEMLEAMMD [K14R] here?
**A.** with no effect

Variants of: B2
Details: with prgc1_human PPARGC1A

**Q.** How did the “effect of a mutation on the interaction” value turn out when MDSVELCLPESFSLHYEEELLCRMSNKDRHIDSSCSSFIRTEPSSPASLTDSVNHHSPGGSSDASGSYSSTMNGHQNGLDSPPLYPSAPILGGSGPVRKLYDDCSSTIVEDPQTKCEYMLNSMPKRLCLVCGDIASGYHYGVASCEACKAFFKRTIQGNIEYSCPATNECEITKRRRKSCQACRFMKCLKVGMLKEGVRLDRVRGGRQKYKRRIDAENSPYLNPQLVQPAKKPYNKIVSHLLVAEPEKIYAMPDPTVPDSDIKALTTLCDLADRELVVIIGWAKHIPGFSTLSLADQMSLLQSAWMEILILGVVYRSLSFEDELVYADDYIMDEDQSKLAGLLDLNNAILQLVKKYKSMKLEKEEFVTLKAIALANSDSMHIEDVEAVQKLQDVLHEALQDYEAGQHMEDPRRAGKMLMTLPLLRQTSTKAVQHFYNIKLEGKVPMHKLFLEMLEAKV [K40R] was run?
**A.** with no effect

Variants of: B3
Details: with sumo3_human SUMO3, P55854
Sequence of sumo3_human SUMO3, P55854 (P55854 whole entry): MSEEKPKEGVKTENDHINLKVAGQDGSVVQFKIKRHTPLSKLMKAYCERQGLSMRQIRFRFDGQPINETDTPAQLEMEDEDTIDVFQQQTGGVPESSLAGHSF

**Q.** MSSQVVGIEPLYIRAEPASPDSPKGSSETETEPPVALAPGPAPTRCLPGHKEEEDGEGAGPGEQGGGKLVLSSLPKRLCLVCGDVASGYHYGVASCEACKAFFKRTIQGSIEYSCPASNECEITKRRRKACQACRFTKCLRVGMLKEGVRLDRVRGGRQKYKRRPEVDPLPFPGPFPAGPLAVAGGPRKTAAPVNALVSHLLVVEPEKLYAMPDPAGPDGHLPAVATLCDLFDREIVVTISWAKSIPGFSSLSLSDQMSVLQSVWMEVLVLGVAQRSLPLQDELAFAEDLVLDEEGARAAGLGELGAALLQLVRRLQALRLEREEYVLLKALALANSDSVHIEDAEAVEQLREALHEALLEYEAGRAGPGGGAERRRAGRLLLTLPLLRQTAGKVLAHFYGVKLEGKVPMHKLFLEMLEAMMD [K14R] was tested. Which “effect of a mutation on the interaction” value did it give?
**A.** with no effect
